Measurements taken from the MegaScale stability set (Tsuboyama et al. 2023).

B1: EEHEE_rd4_0763 (parent)
chain: LTVHVGNVTYHFDNPEQAEEWAKRMAKKYQGQIHVKDGQFRIE

Variants of: B1
Experiment: folding stability dG (cDNA display proteolysis); higher = more stable
Settings: PBS, room temperature

For MTVHVGNVTYHFDNPEQAEEWAKRMAKKYQGQIHVKDGQFRIE [L1M], which “folding stability dG” value is on record?
Its value is 1.84 kcal/mol.

For ATVHVGNVTYHFDNPEQAEEWAKRMAKKYQGQIHVKDGQFRIE [L1A], which “folding stability dG” value is on record?
The value was 2.1 kcal/mol.

Which “folding stability dG” value does the source give for HTVHVGNVTYHFDNPEQAEEWAKRMAKKYQGQIHVKDGQFRIE [L1H] here?
Its value is 2.13 kcal/mol.

With LTVHVGNVTYHFDNPEQAEEWAKRMFKKYQGQIHVKDGQFRIE [A26F] as the variant, how does the “folding stability dG” value read?
Its value is 1.3 kcal/mol.

Which “folding stability dG” value does the source give for LTVHVGNVTYHFDNPEQAEEWAKRMEKKYQGQIHVKDGQFRIE [A26E] here?
The value was 0.642 kcal/mol.

With LTVHVGNVTYHFDNPEQAEEWAKRMYKKYQGQIHVKDGQFRIE [A26Y] as the variant, how does the “folding stability dG” value read?
Its value is 1.15 kcal/mol.

For LTVHVGNVDYHFDNPEQAEEWAKRMAKKYQGQIHVKDGQFRIE [T9D], which “folding stability dG” value is on record?
The value was 1.01 kcal/mol.

With LTVHVGNVTYHFDNPEQAEEWAKRMAKKYQGQIHVKDGQFRVE [I42V] as the variant, how does the “folding stability dG” value read?
The value was 1.58 kcal/mol.

Which “folding stability dG” value does the source give for LTVHVGNVTYHFDNPEQAEEWAKRMAKKYQGQIHVKDGQFRFE [I42F] here?
The value was 1.02 kcal/mol.

For LTVHVGNVTYHFDNPEQAEEWAKRMAKKYQGQIHVKDGQFNIE [R41N], which “folding stability dG” value is on record?
Its value is 1.66 kcal/mol.

Which “folding stability dG” value does the source give for LTVHVGNVTYHFDNPEQAEEWAKRMAKKYQGQIHVKDGQFFIE [R41F] here?
The value was 3.1 kcal/mol.

With LTVHVGNVTYHFDNPEQAEEWAKRMAKKYQGQIHVKEGQFRIE [D37E] as the variant, how does the “folding stability dG” value read?
The value was 1.23 kcal/mol.

For LTVHVGNVTYHFDNPEQAEEWFKRMAKKYQGQIHVKDGQFRIE [A22F], which “folding stability dG” value is on record?
The value was 1.23 kcal/mol.

Which “folding stability dG” value does the source give for LTVHVGNVTYHFDNPEQAEEWPKRMAKKYQGQIHVKDGQFRIE [A22P] here?
The value was -0.823 kcal/mol.

With LTVHVGNVTYHFDNPEQAEEWWKRMAKKYQGQIHVKDGQFRIE [A22W] as the variant, how does the “folding stability dG” value read?
The value was 1.27 kcal/mol.

For LTVHVGNVTYHFDNPEQAEEWAKRMAKKYQGQIHTKDGQFRIE [V35T], which “folding stability dG” value is on record?
The value was 1.18 kcal/mol.

With LTVHVGNVTYHFDNPEQAEEWAKRMAKKYQGQIHAKDGQFRIE [V35A] as the variant, how does the “folding stability dG” value read?
The value was 0.96 kcal/mol.

For LTVHRGNVTYHFDNPEQAEEWAKRMAKKYQGQIHVKDGQFRIE [V5R], which “folding stability dG” value is on record?
Its value is 0.733 kcal/mol.

With LTVHPGNVTYHFDNPEQAEEWAKRMAKKYQGQIHVKDGQFRIE [V5P] as the variant, how does the “folding stability dG” value read?
Its value is 0.391 kcal/mol.

Which “folding stability dG” value does the source give for LTVHVGNVTYHFDNPEQAEEWAKRMAKKYQLQIHVKDGQFRIE [G31L] here?
The value was 2.08 kcal/mol.

Which “folding stability dG” value does the source give for LTVHVGNVTYHFDNPEQAEEWAKRMAKKYQWQIHVKDGQFRIE [G31W] here?
Its value is 1.86 kcal/mol.

With LTVHVGNVTYHFDNPEQAEEWAKRMAKKYQAQIHVKDGQFRIE [G31A] as the variant, how does the “folding stability dG” value read?
Its value is 1.86 kcal/mol.

Which “folding stability dG” value does the source give for LTVHVGNVTYHFDNPEQAEEWAKRMAKKYQMQIHVKDGQFRIE [G31M] here?
The value was 2.06 kcal/mol.

With LTVHVGNVTYHFDNPEQAEEWAKRMAKKYQTQIHVKDGQFRIE [G31T] as the variant, how does the “folding stability dG” value read?
Its value is 1.52 kcal/mol.

With LTVHVGNVTYHFDNPEQAEEWAKRMAKKYQRQIHVKDGQFRIE [G31R] as the variant, how does the “folding stability dG” value read?
Its value is 1.07 kcal/mol.

For LTVHVGNVTYHFDNPEQAEYWAKRMAKKYQGQIHVKDGQFRIE [E20Y], which “folding stability dG” value is on record?
The value was 1.69 kcal/mol.

Which “folding stability dG” value does the source give for LTVHVGNVTYHFDNPEQAEWWAKRMAKKYQGQIHVKDGQFRIE [E20W] here?
Its value is 1.92 kcal/mol.

For LTVHVGNVTYHFDNPEQAEHWAKRMAKKYQGQIHVKDGQFRIE [E20H], which “folding stability dG” value is on record?
Its value is 1.41 kcal/mol.

With LTVHVGNVTYHFDNPEQAEEWAKRMAKKYQGQIHVFDGQFRIE [K36F] as the variant, how does the “folding stability dG” value read?
Its value is 1.79 kcal/mol.

For LTVHVGNVTYHFDNPEQAEEWAKRMAKKYQGQIHVIDGQFRIE [K36I], which “folding stability dG” value is on record?
The value was 2.15 kcal/mol.

With LTVHVGNVTYHFDNPEQAEEWAKRMAKKYQGSIHVKDGQFRIE [Q32S] as the variant, how does the “folding stability dG” value read?
Its value is 1.62 kcal/mol.

For LTVHVGNVTYHFDNPEQAEEWAKRMAKKYQGCIHVKDGQFRIE [Q32C], which “folding stability dG” value is on record?
Its value is 1.93 kcal/mol.

Which “folding stability dG” value does the source give for LTVHVGNVTYHFDNPEQAEEWAKRMAKKYQGHIHVKDGQFRIE [Q32H] here?
Its value is 1.81 kcal/mol.

With LTVHVGNVTYHFDNPEQAEEWAKRMAKKYQGAIHVKDGQFRIE [Q32A] as the variant, how does the “folding stability dG” value read?
The value was 1.52 kcal/mol.

For LTVHVGNVTYHFDNPEQAEEWAKRMAKKYQGLIHVKDGQFRIE [Q32L], which “folding stability dG” value is on record?
The value was 1.48 kcal/mol.

Which “folding stability dG” value does the source give for LTVHVGNVTYHFDNPEQAEEWAKRMAKKYQGWIHVKDGQFRIE [Q32W] here?
The value was 1.21 kcal/mol.

For LTVIVGNVTYHFDNPEQAEEWAKRMAKKYQGQIHVKDGQFRIE [H4I], which “folding stability dG” value is on record?
Its value is 1.9 kcal/mol.

With LTVSVGNVTYHFDNPEQAEEWAKRMAKKYQGQIHVKDGQFRIE [H4S] as the variant, how does the “folding stability dG” value read?
The value was 1.72 kcal/mol.

With LTVHVGNVTYHFDNPEQLEEWAKRMAKKYQGQIHVKDGQFRIE [A18L] as the variant, how does the “folding stability dG” value read?
Its value is 1.27 kcal/mol.

With LTVHVGNVTYHFDNPEQTEEWAKRMAKKYQGQIHVKDGQFRIE [A18T] as the variant, how does the “folding stability dG” value read?
Its value is 0.517 kcal/mol.

For LTVHVGNVTYHFDNPEQDEEWAKRMAKKYQGQIHVKDGQFRIE [A18D], which “folding stability dG” value is on record?
Its value is 0.132 kcal/mol.

For LTVHVGNVTYHFDNPEQEEEWAKRMAKKYQGQIHVKDGQFRIE [A18E], which “folding stability dG” value is on record?
Its value is 0.367 kcal/mol.

For LTVHVGNVTYHFDNPEQAEEWAKRMAKKYNGQIHVKDGQFRIE [Q30N], which “folding stability dG” value is on record?
Its value is 2.06 kcal/mol.

For LTVHVGNVTYHFDNPEQAEEWAKRMAKKYQGQIYVKDGQFRIE [H34Y], which “folding stability dG” value is on record?
The value was 1.79 kcal/mol.

Which “folding stability dG” value does the source give for LTVHVGNVTYHFDNPEQAEEWAKRMAKKYQGQIMVKDGQFRIE [H34M] here?
Its value is 1.69 kcal/mol.

With LTVHVGNVTYHFDNPEQAEEWAKRMAKKYQGQIWVKDGQFRIE [H34W] as the variant, how does the “folding stability dG” value read?
The value was 1.42 kcal/mol.

Which “folding stability dG” value does the source give for LTVHVGNVTYHFDNPEQAEEWAKRMAKKYQGQIFVKDGQFRIE [H34F] here?
Its value is 1.87 kcal/mol.

For LTVHVGNVTYHFDNPEQAEEWAKMMAKKYQGQIHVKDGQFRIE [R24M], which “folding stability dG” value is on record?
The value was 1.85 kcal/mol.

Which “folding stability dG” value does the source give for LTVHVGNVTYHFDNPEQAEEWAKIMAKKYQGQIHVKDGQFRIE [R24I] here?
The value was 1.75 kcal/mol.

With LTVHVGNVTYHFDNPEQAEEWAKNMAKKYQGQIHVKDGQFRIE [R24N] as the variant, how does the “folding stability dG” value read?
The value was 1.09 kcal/mol.

With LTVHVGNVTYHFDNPEQAEEWAKGMAKKYQGQIHVKDGQFRIE [R24G] as the variant, how does the “folding stability dG” value read?
The value was 0.948 kcal/mol.

With LTVHVGNVTYHFDNPEQAVEWAKRMAKKYQGQIHVKDGQFRIE [E19V] as the variant, how does the “folding stability dG” value read?
The value was 1.69 kcal/mol.

For LTVHVGNVTYHFDNPEQAGEWAKRMAKKYQGQIHVKDGQFRIE [E19G], which “folding stability dG” value is on record?
The value was 1.21 kcal/mol.

With LTVHVGNVTYHFDNPEQADEWAKRMAKKYQGQIHVKDGQFRIE [E19D] as the variant, how does the “folding stability dG” value read?
Its value is 1.06 kcal/mol.

With LTVHVGNVTYHYDNPEQAEEWAKRMAKKYQGQIHVKDGQFRIE [F12Y] as the variant, how does the “folding stability dG” value read?
Its value is 0.446 kcal/mol.

Which “folding stability dG” value does the source give for LTVHVGNVTYHCDNPEQAEEWAKRMAKKYQGQIHVKDGQFRIE [F12C] here?
The value was 1.44 kcal/mol.

For LTVHVGNVTQHFDNPEQAEEWAKRMAKKYQGQIHVKDGQFRIE [Y10Q], which “folding stability dG” value is on record?
The value was 0.381 kcal/mol.

Which “folding stability dG” value does the source give for LTVHVGNVTKHFDNPEQAEEWAKRMAKKYQGQIHVKDGQFRIE [Y10K] here?
The value was 0.806 kcal/mol.

With LTVHVGNVTWHFDNPEQAEEWAKRMAKKYQGQIHVKDGQFRIE [Y10W] as the variant, how does the “folding stability dG” value read?
Its value is 1.85 kcal/mol.
